# Data as given in patent US9060960B2, “Treatment of dissection, aneurysm, and atherosclerosis using granzyme B inhibitors” (The University of British Columbia, priority 2007, dated 2015).
# Values joined by “and” are separate entries in the source; they are usually repeats but may differ in a detail not shown here. Identical values can stand only once.
# Legend:
# [1] = tested on: apoE-KO and GrB/apoE-DKO mice; assay: ApoE-KO model of angiotensin-II-induced AAA (Examples 8-14); format: in vivo, mouse; settings: for survival to 28 days: chronic angII infusion 1000 ng/min/kg
# Excerpt: All animal protocols were approved by the University of British Columbia (UBC) Animal Care Committee. C57B1/6 mice, C57B1/6-ApoE−/− and C57B1/6-GrB−/− mice were obtained from Jackson Laboratories (Bar Harbor, Me.) ([…] et al. 1992. Proc Natl. Acad Sci 89: 4471-4475; HEUSEL et al 1994 Cell 76:977-987). The C57B1/6-ApoE−/− x GrB−/− double knockout (ApoE/GrB-DKO) mice were generated by crossing the C57B1/6-ApoE−/− and C57B1/6-GrB−/− mouse strains. […] The pups were weaned at 3 weeks of age and then maintained on a 12-hour day and night cycle with food and water provided ad libitum.
# ALZET™ osmotic pumps (DURECT Corporation, Cupertino, Calif.) are miniature, implantable pumps commonly used for research in mice and rats. These infusion pumps continuously deliver drugs and other test agents at controlled rates from one day to four weeks without the need for external connections or frequent handling. ALZET™ pumps operate by osmotic displacement. An empty reservoir within the core of the pump is filled with the drug solution to be delivered. Due to the presence of a high concentration of salt in a chamber surrounding the reservoir, water enters the pump through its outer surface. This entry of water increases the volume in the salt chamber, causing compression of the flexible reservoir and delivery of the drug solution into the animal.
# Mice were weighed immediately before calculating doses, and the mean weight of mice per group was used. Since mice on a regular diet gain 0.5 g of weight per week, the drug dose was calculated based on the projected mid weight of the experiment (so mice were slightly overdosed for the first two weeks and under-dosed for the final two weeks). The dose was calculated based on the pump fill volume, mean pumping rate, and the midpoint weight of the mice to achieve a value of 1.44 mg/kg/day, (equivalent to 1000 ng/min/kg). To ensure accurate filling, pumps were weighed before and after filling, and a value of 1 mg equal to 1 μL was used when assessing fill volume. […] All pumps and solutions were worked with under sterile conditions. […] All test tubes were placed in the incubator at 37° C. for 24 hours prior to implantation.
# On day 1, mice were brought into the GEM micro-procedure room Animals were anesthetised with gaseous anaesthetic at a flow rate of 1.5 L per minute of oxygen with 2.5% of isoflurane delivered via a Baines system using a calibrated tabletop anaesthetic machine, administered from a rodent nose cone. Depth of anaesthesia was monitored by toe pinch response and breathing. Eyes were protected using ocular lubricant. The back of the mouse was shaved, and the legs were taped down. The back of the mouse was then sterilized with 70% ethanol, followed by iodine. The mouse was then moved to the surgical table, so that the dissecting microscope could be utilised.
# Under sterile conditions, a lateral incision was made below the scapula, and the skin was blunt dissected from the subcutaneous layer, making a hole large enough to fit the minipump. The minipump was inserted with the flow regulator angled towards the head. Incisions were closed with 2-4 dissolving discontinuous sutures. Isoflurane was then shut off, allowing the mouse to breathe pure oxygen, and a dose of buprenorphine was administered for pain relief After 1 hour, when the mice had recovered from anaesthesia, they were moved back to the animal holding room. The mice were monitored daily for the remainder of the experiment.
# Blood was collected by cardiac puncture following CO2 euthanization.
# [2] = tested on: C57, apoE-KO and GrB/apoE-DKO mice; assay: Angiotensin-II infusion aortic dissection model (Example 7); format: in vivo, mouse
# Experimental: Aortic dissections were induced with 28 day infusion of 2000 ng/kg/min angiotensin-II dissolved in saline, or placebo, through an ALZET™ osmotic pump (model 1004). The pumps were implanted into the subcutaneous space in the upper dorsal regions through a small incision site at the back of the neck of the anesthetized mouse, and the incision was closed with dissolving sutures. The mice were euthanized by carbon dioxide inhalation followed by cardiac puncture 28-days post implantation. The thoracic cavity and abdominal cavity were then opened, and the circulation perfused with PBS via a cannula placed in the left ventricle, with fluid drained from a severed right atria. Following PBS perfusion, fresh 10% formalin was perfused in the same manner. The heart, kidneys and entire aorta to the iliac bifurcation was then carefully dissected from the animal, and photographed en masse.
# Aortic dissections were defined by blood accumulation between the media and outer aortic wall. Mice that were found dead without any preceding signs of suffering were defined as sudden death.
# [3] = tested on: skin elastin (3H-elastin); assay: 3H-elastin cleavage assay (skin elastin); format: biochemical
# Experimental: (§1) FIG. 6 Granzyme B degrades elastin in vitro. Granzyme B was incubated with ^3H-elastin for 7 days at room temperature. Elastase was incubated with ^3H-elastin for 2 hours. Supernatants containing the soluble elastin cleavage fragments were collected and counted. Data is represented as fold increase in radioactivity over the control (elastin only). (n=2).
# (§2) Tritiated elastin was prepared with the modifications as described in Banda, M. J. and Werb, Z. (1981) Biochem, J. 193: 589-605 and Gordon, S., Werb, Z. and Cohn, Z. A. (1976) in In Vitro Methods in Cell Mediated and Tumor Immunity, eds. Bloom, B. R. and David, J. R. (Academic Press, New York), pages 349-350. 1 mg of skin or aortic elastin was diluted in 1 ml dH2O and pHed to 9.2. 1 mCi NaB3H4 (PerkinElmer™, Waltham Mass.) and 2 mg of […] (Sigma™, St. Louis, Mo.) was added. After 2 hours of incubation, the pH was adjusted to 3.0 and the elastin was incubated for an additional 30 minutes. The elastin was centrifuged for 3 minutes at 5000×g and the pellet was repeatedly washed to remove excess NaB3H4. […] The radioactivity of the soluble, cleaved elastin fragments in the supernatant was counted in Ready Safe Scintillation Fluid (Beckman-Coulter™, Fullerton, Calif.). The radioactivity of the cleaved, soluble elastin fragments was 4.8 times and 2.7 times higher than background for skin and aortic elastin, respectively (FIG. 6).
# [4] = tested on: aortic elastin (3H-elastin); assay: 3H-elastin cleavage assay (aortic elastin); format: biochemical
# Experimental: as §1, §2
# [5] = tested on: vitronectin; assay: Western blot for vitronectin on granzyme B-treated SMCs; format: biochemical, human; settings: SMCs treated with granzyme B for 24 hours
# Experimental: (§3) Extracellular proteins from SMC cultures were biotinylated and incubated with granzyme B. The supernatant was collected at 2, 4 and 24 hours after treatment, and the entire insoluble extracellular protein preparation collected at 24 hours. Extracellular proteins were visualized by Western blot for biotin. Western blot for beta-actin confirmed that the extracellular protein preparation was devoid of intercellular proteins. Western blots for fibronectin, phosphorylated FAK (p-FAK), and FAK were also performed on lysates of SMC treated with granzyme B. In the collected insoluble proteins, four protein bands between approximately 50-70 kDa and approximately 236 kDa disappeared 24 hours after treatment with granzyme B and cleavage of fragments approximately 25-39 kDa were evident in the matrix at this same time point. Further, the six proteins and/or cleavage fragments ranging in molecular weight from approximately 29-148 kDa were eluted into the supernatant as early as two hours after granzyme B treatment. […]
# (§4) To identify extracellular proteins that are cleaved by granzyme B, western blots for fibronectin, collagen, and vitronectin on lysates from untreated and granzyme B-treated SMCs were performed. […] In the supernatants of granzyme B-treated SMCs at 24 hours, a fibronectin cleavage product was detected. […]
# [6] = tested on: human coronary artery smooth muscle cells (SMC) matrix; assay: Cleavage of biotinylated SMC extracellular proteins; format: biochemical; settings: supernatant at 2, 4, 24 hours; insoluble matrix at 24 hours
# Experimental: Extracellular proteins from SMC cultures were biotinylated and incubated with granzyme B. The supernatant was collected at 2, 4 and 24 hours after treatment, and the entire insoluble extracellular protein preparation collected at 24 hours. Extracellular proteins were visualized by Western blot for biotin. Western blot for beta-actin confirmed that the extracellular protein preparation was devoid of intercellular proteins. Western blots for fibronectin, phosphorylated FAK (p-FAK), and FAK were also performed on lysates of SMC treated with granzyme B. In the collected insoluble proteins, four protein bands between approximately 50-70 kDa and approximately 236 kDa disappeared 24 hours after treatment with granzyme B and cleavage of fragments approximately 25-39 kDa were evident in the matrix at this same time point. Further, the six proteins and/or cleavage fragments ranging in molecular weight from approximately 29-148 kDa were eluted into the supernatant as early as two hours after granzyme B treatment. To ensure that the SMC extracellular protein preparations used were devoid of intracellular proteins, Western blotting for beta-actin was performed on the collected supernatant and extracellular proteins. Beta-actin was apparent in SMC lysates (positive control) but was absent from matrix and supernatant preparations.
# [7] = target: T1, fibrillin-1 (Homo sapiens, UniProt P35555); assay: Fibrillin cleavage on SMC extracellular matrix by Western blot; format: biochemical; settings: Granzyme B (80 nm) on ECM, 24 hours, room temperature
# T1 construct: cells were lysed with NH4OH so that the intact extracellular matrix (ECM) remained on the plate; endogenous in cells; host or cells: human coronary artery smooth muscle cells (decellularised ECM)
# Experimental: Human coronary artery smooth muscle cells were cultured to confluency and serum starved for 48 hours at which time cells were lysed with NH4OH so that the intact extracellular matrix (ECM) remained on the plate. Granzyme B (80 nm) was incubated on the ECM for 24 hours at room temperature. Supernatants (containing cleaved ECM) and ECM still attached to the plate were collected and assessed for fibrillin cleavage by Western blot. The arrows in FIG. 7 indicate fibrillin-1 cleavage fragments.
# [8] = tested on: human insoluble skin (Sk) elastin; assay: in vitro granzyme B elastin binding assay (skin elastin); settings: 50, 100, 300 ng granzyme B; 15 μg skin elastin; PBS, 3 hours, room temperature
# Experimental: (§5) An in vitro granzyme B elastin binding assay was conducted in the following manner. Granzyme B at 50, 100 and 300 ng was incubated with 15 μg of human insoluble skin (Sk) and aortic (Ao) elastin (Elastin Products Company™, Owensville, Mo.) in PBS for three hours at room temperature. The samples were centrifuged at 1000×g at room temperature for three minutes and the insoluble elastin collected in the pellet. The supernatants, which contained unbound granzyme B, were denatured with SDS loading buffer and run on a 10% SDS-PAGE gel. Granzyme B was detected by Western blot. Each gel contained three lanes: a first lane related to a sample containing granzyme B in the absence of elastin; a second lane related to the samples containing granzyme B and human insoluble skin elastin; and a third lane related to the sample containing granzyme B and aortic elastin. […] This phenomenon was dose-dependent and not restricted to the type of elastin used (i.e. skin elastin or aortic elastin).
# [9] = target: T2, fibronectin (Homo sapiens, UniProt P02751); assay: Western blot for fibronectin on granzyme B-treated SMCs; format: biochemical; settings: SMCs treated with granzyme B for 24 hours
# T2 construct: endogenous in cells; host or cells: human coronary artery smooth muscle cells
# Experimental: as §3, §4
# [10] = tested on: human insoluble aortic (Ao) elastin; assay: in vitro granzyme B elastin binding assay (aortic elastin); settings: 50, 100, 300 ng granzyme B; 15 μg aortic elastin; PBS, 3 hours, room temperature
# Experimental: as §5
# [11] = tested on: collagen IV; assay: Western blot for collagen on granzyme B-treated SMCs; format: biochemical, human; settings: SMCs treated with granzyme B for 24 hours
# Experimental: as §3, §4
# T2 sequence (P02751 32-2477): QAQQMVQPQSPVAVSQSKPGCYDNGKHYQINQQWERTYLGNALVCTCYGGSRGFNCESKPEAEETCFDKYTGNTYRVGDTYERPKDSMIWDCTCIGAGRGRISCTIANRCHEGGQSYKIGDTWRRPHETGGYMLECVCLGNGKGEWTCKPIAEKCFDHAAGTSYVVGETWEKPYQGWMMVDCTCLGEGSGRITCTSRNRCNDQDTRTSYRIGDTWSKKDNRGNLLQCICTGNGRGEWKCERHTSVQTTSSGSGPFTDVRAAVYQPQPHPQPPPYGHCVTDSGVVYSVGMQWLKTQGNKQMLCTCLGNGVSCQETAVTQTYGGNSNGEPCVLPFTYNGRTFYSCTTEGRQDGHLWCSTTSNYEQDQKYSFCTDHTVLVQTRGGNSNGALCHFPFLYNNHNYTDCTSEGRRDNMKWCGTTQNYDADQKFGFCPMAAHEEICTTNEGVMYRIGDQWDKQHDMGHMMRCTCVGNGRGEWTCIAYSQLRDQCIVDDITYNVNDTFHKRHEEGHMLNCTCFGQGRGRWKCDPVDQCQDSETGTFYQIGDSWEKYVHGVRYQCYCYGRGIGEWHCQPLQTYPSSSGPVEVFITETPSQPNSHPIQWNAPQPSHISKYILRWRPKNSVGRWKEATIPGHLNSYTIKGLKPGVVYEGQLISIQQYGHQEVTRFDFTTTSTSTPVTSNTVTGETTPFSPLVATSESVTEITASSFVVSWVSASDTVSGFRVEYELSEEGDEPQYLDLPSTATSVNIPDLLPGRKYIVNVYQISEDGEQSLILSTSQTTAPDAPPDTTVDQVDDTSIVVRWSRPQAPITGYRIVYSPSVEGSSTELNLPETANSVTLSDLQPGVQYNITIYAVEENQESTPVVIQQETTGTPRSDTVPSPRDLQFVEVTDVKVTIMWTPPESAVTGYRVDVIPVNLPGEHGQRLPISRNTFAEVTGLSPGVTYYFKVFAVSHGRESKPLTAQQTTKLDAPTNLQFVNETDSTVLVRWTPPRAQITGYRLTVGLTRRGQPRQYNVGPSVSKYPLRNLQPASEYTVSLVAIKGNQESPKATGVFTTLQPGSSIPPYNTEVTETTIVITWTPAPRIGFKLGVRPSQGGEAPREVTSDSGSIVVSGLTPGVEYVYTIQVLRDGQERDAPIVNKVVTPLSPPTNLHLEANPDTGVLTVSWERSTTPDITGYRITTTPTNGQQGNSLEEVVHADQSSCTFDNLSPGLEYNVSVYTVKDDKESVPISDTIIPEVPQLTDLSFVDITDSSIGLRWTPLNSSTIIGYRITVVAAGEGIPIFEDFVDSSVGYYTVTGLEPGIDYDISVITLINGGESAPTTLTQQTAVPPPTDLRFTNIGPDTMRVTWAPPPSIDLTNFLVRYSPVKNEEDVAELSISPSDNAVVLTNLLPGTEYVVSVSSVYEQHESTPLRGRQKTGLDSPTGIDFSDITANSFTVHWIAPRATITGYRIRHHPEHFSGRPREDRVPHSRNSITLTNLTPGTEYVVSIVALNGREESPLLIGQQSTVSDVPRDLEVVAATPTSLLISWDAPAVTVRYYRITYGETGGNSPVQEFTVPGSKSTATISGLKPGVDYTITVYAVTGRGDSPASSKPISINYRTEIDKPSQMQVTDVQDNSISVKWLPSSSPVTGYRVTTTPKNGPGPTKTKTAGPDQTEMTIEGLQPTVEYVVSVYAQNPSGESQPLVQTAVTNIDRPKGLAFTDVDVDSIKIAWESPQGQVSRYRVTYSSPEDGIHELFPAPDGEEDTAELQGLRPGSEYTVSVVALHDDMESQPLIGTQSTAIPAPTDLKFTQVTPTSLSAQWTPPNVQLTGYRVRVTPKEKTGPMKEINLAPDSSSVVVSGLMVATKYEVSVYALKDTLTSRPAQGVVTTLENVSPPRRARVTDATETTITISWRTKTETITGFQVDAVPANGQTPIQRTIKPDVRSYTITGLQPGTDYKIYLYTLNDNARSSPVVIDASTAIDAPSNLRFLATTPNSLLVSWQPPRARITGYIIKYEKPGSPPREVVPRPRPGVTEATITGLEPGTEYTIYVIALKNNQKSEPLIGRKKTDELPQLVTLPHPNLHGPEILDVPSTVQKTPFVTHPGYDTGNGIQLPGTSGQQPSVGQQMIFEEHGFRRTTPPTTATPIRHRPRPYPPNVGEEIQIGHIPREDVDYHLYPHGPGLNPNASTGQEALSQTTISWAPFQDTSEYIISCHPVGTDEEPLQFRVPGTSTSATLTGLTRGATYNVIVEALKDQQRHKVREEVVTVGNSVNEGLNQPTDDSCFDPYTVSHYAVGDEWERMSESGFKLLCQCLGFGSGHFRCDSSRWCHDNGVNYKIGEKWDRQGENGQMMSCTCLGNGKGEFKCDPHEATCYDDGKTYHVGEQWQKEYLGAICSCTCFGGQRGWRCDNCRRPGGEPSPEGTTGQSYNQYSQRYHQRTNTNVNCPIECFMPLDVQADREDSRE
substance,measurement,setting,value
"angII: angiotensin II from Sigma, infused by osmotic minipump to induce aneurysm and dissection in mice (DRVYIHPF; Angiotensin-2; UniProt P01019 25-32, looked up)",medial thickness of thoracic and abdominal aortas versus saline,"[1]; 28 days, significant only for apoE-KO thoracic samples (p<0.05)",trend for medial thickness to increase
same,survival to 28 days,[1]; GrB/apoE-DKO mice (n=15),86.67%
same,Weight change,[1]; GrB/apoE-DKO mice surviving to 28 days,-0.3 g
same,n at 28 days,"[1]; GrB/apoE-DKO mice, n at 0 days 15",13
same,mice with small abdominal aortic aneurysm (AAA),"[1]; GrB/apoE-DKO surviving mice, day 28",30%
same,survival to 28 days,[1]; apoE-KO mice (n=16),56.25% and 53%
same,Weight change,[1]; apoE-KO mice surviving to 28 days,1.0 g
same,abdominal aortic lumen area versus saline,"[1]; apoE-KO mice, 28 days, one-way ANOVA/Dunn's, p<0.05",statistically significant increase
same,n at 28 days,"[1]; apoE-KO mice, n at 0 days 16",9
same,gross pathological outcome,"[1]; apoE-KO surviving mice, day 28",developed aortic dissections
same,percent aortic root lumen covered by plaque,"[1]; either genotype, angII versus saline, 28 days, p>0.05",No significant difference
same,sudden death before the 28-day time point,"[2]; apoE-KO mice, 2000 ng/kg/min infusion, four of eight",50%
same,mice that developed aortic dissections or succumbed to sudden death,"[2]; apoE-KO mice, 2000 ng/kg/min, 28 day infusion, seven of eight",87.5%
same,aortic dissections,"[2]; wildtype and GrB/apoE-DKO mice, 2000 ng/kg/min, 28 day infusion",none developed aortic dissections
same,sudden death,"[2]; wildtype mice, 2000 ng/kg/min, 28 day infusion",zero of six
elastase,radioactivity increase over background,"[3]; skin elastin, 25 μg elastase, 2 hours, positive control",14.9 fold
same,radioactivity increase over background,"[4]; aortic elastin, 25 μg elastase, 2 hours, positive control",7.7 fold
"granzyme B: serine protease; the patent's target enzyme, tested for binding and cleavage of extracellular matrix proteins",cleavage of vitronectin,[5],no cleavage
same,cleavage of extracellular proteins (Western blot for biotin),[6],induced a cleavage of a number of extracellular proteins
same,fibrillin-1 cleavage (Western blot),[7],cleaves fibrillin-1
same,"radioactivity of the cleaved, soluble elastin fragments","[3]; skin 3H-elastin 0.15 mg, granzyme B 0.75 μg added 5 times, room temperature, 7 days",4.8 times higher than background
same,"radioactivity of the cleaved, soluble elastin fragments","[4]; aortic 3H-elastin 0.15 mg, granzyme B 0.75 μg added 5 times, room temperature, 7 days",2.7 times higher than background
same,unbound granzyme B band in supernatant (Western blot) versus sample without elastin,[8],dramatically less pronounced
same,fibronectin in SMC lysates (Western blot),[9],reduction in the total amount of fibronectin
same,unbound granzyme B band in supernatant (Western blot),[10],No band appeared
same,cleavage of collagen IV,[11],no cleavage
